# Data reported in the RNAGym collection of RNA variant scans (doi:10.7554/elife.80360).
# B1: HDV Ribozyme (parent)
# chain: GGCCGGCAUGGUCCCAGCCUCCUCGCUGGCGCCGGCUGGGCAACAUUCCGAGGGGACCGUCCCCUCGGUAAUGGCGAAUGGGACCCA
# Variants of: B1
# Assay: self-cleavage, relative activity (ratio to wild type); higher = more cleavage; co-transcriptional
row,Variant,self-cleavage
1,C14U U37G,0.199
2,C15A U79C,0.326
3,C15G C22U,0.222
4,C15G A70U,0.415
5,C14G U69C,0.519
6,C15G A77C,0.128
7,C15A C24A,0.378
8,C15A C24U,0.0811
9,C14U G73C,0.252
10,C14U G73A,0.831
11,C15A C41G,0.285
12,C15A C41U,0.399
13,C15A C41A,0.655
14,C14G C24A,0.378
15,C15A C18G,0.111
16,C15A C18A,0.115
17,C14U U23C,1.47
18,C14U U23G,0.712
19,C15A G67U,0.633
20,C14U U20A,0.145
21,C14U U20G,0.145
22,C14G C63U,0.9
23,C14G C63G,0.573
24,C15A C85U,0.755

row,Variant,self-cleavage
1,C15A C85A,0.623
2,C14G C84U,0.415
3,C14U G38C,0.158
4,C14U G38A,0.0652
5,C15A C30G,0.138
6,C15A C30A,0.326
7,C14G U23C,0.712
8,C14G U23G,0.453
9,C14G C75G,0.0554
10,C14G C75U,0.155
11,C15A C66A,0.684
12,C15A C66G,0.688
13,C15A C66U,0.909
14,C14U G82C,0.415
15,C14U G82U,0.494
16,C14G C66A,0.665
17,C14G G68A,0.431
18,C14U C22A,0.339
19,C15A G59C,0.723
20,C15A G39U,0.177
21,C15A G39C,0.107
22,C15A C22U,0.231
23,C15A C22G,0.113
24,C15A C22A,0.111

row,Variant,self-cleavage
1,C15A A83U,0.0639
2,C15A A83G,0.284
3,C14U C64U,0.972
4,C14U C64A,0.939
5,C14G U72C,0.0978
6,C14G U72G,0.312
7,C14G U72A,0.383
8,C15A G25C,0.0692
9,C14G G28C,0.0415
10,C15A U20A,0.0573
11,C15A U20G,0.19
12,C15G A51C,0.623
13,C15G A51G,0.587
14,C15A G74A,0.174
15,C15A G74C,0.185
16,C15A G74U,0.218
17,C14U A16C,1.07
18,C14U A16U,1.09
19,C14U C85A,0.978
20,C14U C24U,0.658
21,C14U A43U,0.443
22,C15G A71C,0.222
23,C15G A71U,0.489
24,C15A G38C,0.0831

row,Variant,self-cleavage
1,C15A G38U,0
2,C15A A51U,0.573
3,C15A A51C,1.14
4,C15A A51G,0.923
5,C14G G31A,0.324
6,C14G G31U,0.0386
7,C15A C84G,0.244
8,C15G A87G,0.543
9,C15A C58U,0.458
10,C14G G81U,0.923
11,C15G A56C,0.739
12,C15G A56U,0.914
13,C14U C66A,0.877
14,C14U C66G,0.884
15,C14U U27G,1.11
16,C14U U27A,1.03
17,C14U U27C,0.723
18,C14U G76U,1.14
19,C14U G29C,0.0941
20,C14U G29A,0.188
21,C14U G67U,1.08
22,C15A G34A,0.0723
23,C14U A77C,0.249
24,C15A C63A,0.403

row,Variant,self-cleavage
1,C14G U47C,0.604
2,C14G U47G,0.383
3,C15A U47C,0.317
4,C15A U47G,0.35
5,C15A U47A,0.522
6,C14U C86A,1.1
7,C14U C86G,1.12
8,C14U C86U,0.875
9,C14U G55U,1.24
10,C14U U72C,0.532
11,C14G G80A,0.346
12,C14G C21U,0.113
13,C14G C21A,0.0504
14,C15A C75G,0.142
15,C14U G50A,1.01
16,C14U C63A,0.957
17,C14U C63U,0.927
18,C14U C63G,0.831
19,C14U G31U,0.429
20,C14U G31C,0.342
21,C15G A16C,0.369
22,C14G G55C,0.665
23,C14G G55U,0.682
24,C14G G55A,0.59

row,Variant,self-cleavage
1,C15A A78G,0.447
2,C15A A78U,0.0639
3,C14G C41G,0.525
4,C14G C41U,0.462
5,C14G G52U,0.391
6,C15G C36G,0
7,C15G C36A,0.306
8,C15A G17C,0.0978
9,C15G C18U,0.0852
10,C15G C18A,0.0997
11,C15G C18G,0.0594
12,C14U G52A,0.973
13,C14U G52C,1.1
14,C15G C30A,0.147
15,C15G C30U,0.145
16,C15A A42G,0.104
17,C15A A42C,0.122
18,C14G U60G,0.511
19,C14G C57G,0.782
20,C14G C57A,0.748
21,C14G C57U,0.665
22,C14G U27A,0.7
23,C15A G55C,0.482
24,C15A G55U,0.608

row,Variant,self-cleavage
1,C14U A56C,1.44
2,C14U A56U,1.22
3,C14U A51U,1.14
4,C15A G76U,0.919
5,C14G C44G,0.196
6,C14G G25C,0
7,C14G G25U,0.0504
8,C14G G59C,0.969
9,C15A C32A,0.151
10,C15A C32G,0.107
11,C15A G53U,0.808
12,C15A G53C,0.674
13,C14U G74C,0.369
14,C14U G74A,0.604
15,C14U U46C,1.03
16,C14U C36A,0.128
17,C14U C18G,0.0875
18,C14G C19G,0.0449
19,C14G C19U,0.0852
20,C15A C61A,0.831
21,C14G G67C,0.554
22,C14U A78G,0.831
23,C14U A78U,0.156
